The target in one assay is Human Siglec-7 (human) (UniProt Q9Y286). Description: flow cytometry on fresh purified human NK cells gated CD3-/CD56+, isotype control staining. In general terms: Flow cytometry measures light scatter and fluorescence of single cells or particles in a stream.
In assay [1] the target is T1, Human Siglec-9 (human, UniProt Q9Y336 18-463).
T1 construct: Expressed on transfected CHO cells and YTS cells; also called huSiglec-9; CD329
The description is as above.

The target of assay [2] is T1, Human Siglec-9. Put plainly: flow cytometry titration on moDC against neuraminidase-treated moDC. As to the method:
(§1) moDC were desialylated for 2 hours with 25 mU neuraminidase (Roche Diagnostics).
(§2) Binding on moDCs and neuraminidase treated moDCs was tested in a titration experiment by flow cytometry. Cells were incubated 1 h in Staining Buffer (SB) with primary antibodies at 10 ug/ml and a series of dilution of 1:10. They were washed two times with SB, then incubated 30 min with a Goat F(ab′)² Anti-Human IgG (Fc) PE (Jackson lmmunoresearch), and washed twice with SB.

The target in assay [3] is T1, Human Siglec-9. Description: flow cytometry titration on neuraminidase-treated (desialylated) moDCs; goat F(ab')2 anti-human IgG (Fc) PE. How it is done: as §1, §2

5 molecules from US20210363249A1 (INNATE PHARMA, published 2021) can be followed below.

T1 sequence (Q9Y336 18-463): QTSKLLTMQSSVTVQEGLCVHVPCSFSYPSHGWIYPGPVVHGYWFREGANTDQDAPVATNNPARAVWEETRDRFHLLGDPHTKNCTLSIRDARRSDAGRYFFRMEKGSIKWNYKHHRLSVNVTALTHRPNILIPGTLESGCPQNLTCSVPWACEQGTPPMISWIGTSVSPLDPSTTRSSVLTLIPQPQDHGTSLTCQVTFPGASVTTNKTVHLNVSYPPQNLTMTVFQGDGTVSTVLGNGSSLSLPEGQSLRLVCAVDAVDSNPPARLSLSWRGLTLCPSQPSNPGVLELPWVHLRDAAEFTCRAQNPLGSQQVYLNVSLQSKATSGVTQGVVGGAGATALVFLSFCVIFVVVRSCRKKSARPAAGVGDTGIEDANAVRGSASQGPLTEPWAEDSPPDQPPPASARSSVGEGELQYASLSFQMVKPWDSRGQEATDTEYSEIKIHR
Human Siglec-7 (human), sequence (Q9Y286 19-467): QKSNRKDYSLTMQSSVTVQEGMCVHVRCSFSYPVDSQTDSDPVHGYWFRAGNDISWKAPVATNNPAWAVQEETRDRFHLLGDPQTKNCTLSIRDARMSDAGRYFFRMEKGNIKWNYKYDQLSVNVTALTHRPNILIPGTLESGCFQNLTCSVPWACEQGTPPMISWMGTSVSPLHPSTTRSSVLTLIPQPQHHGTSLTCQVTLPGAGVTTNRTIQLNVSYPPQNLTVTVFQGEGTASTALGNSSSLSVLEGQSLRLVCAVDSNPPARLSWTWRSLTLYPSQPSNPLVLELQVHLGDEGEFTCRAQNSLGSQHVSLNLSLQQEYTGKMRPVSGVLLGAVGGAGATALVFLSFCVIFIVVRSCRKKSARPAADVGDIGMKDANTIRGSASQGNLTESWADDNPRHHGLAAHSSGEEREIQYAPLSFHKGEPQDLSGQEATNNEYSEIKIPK

Consider Isotype control - APC (antibody), for which, in the assay with Human Siglec-7 (human), the percent of NK cells in quadrant Q1 (isotype APC positive, isotype PE negative) turned out to be 0.975 and the percent of NK cells in quadrant Q2 (isotype APC positive, isotype PE positive) was 0.34.
On to Isotype control - PE (antibody), for which, in the assay with Human Siglec-9 [1], the percent of NK cells in quadrant Q2 (isotype APC positive, isotype PE positive) was 0.34 and the percent of NK cells in quadrant Q3 (isotype APC negative, isotype PE positive) was found to be 2.54.

B1: mAbA (antibody, V domains shown)
VH: QVQLQQPGAELVKPGSPVKLSCKASYFTFTSYWMHWVRQRPGQGLEWIGEINPSNGHTNYNEKFESKATLTVDRSSSTAYMQLSSLTSEDSAVFYCANGVESYDFDDALDYWGQGTSVTVSS
VL: DIQMTQTTSSLSASLGDRVTISCRASQDINNYLNWYQQKPDGTIKLLIYYTSRLHSGVPSRFSGSGSGTDYSLTINNLEQEDIATYFCQQGNTLPFTFGGGTKLEIK
notes: Anti-Siglec-9
The term EC50 (read off the curve) denotes the concentration giving half of the maximal effect. High values mean lower potency in that assay, low ones higher potency in that assay. In the case of B1, the “fold enhancement of EC50 after neuraminidase treatment of moDC” value (“fold enhancement of EC50” for short) with Human Siglec-9 [2] was 10 fold. The “EC50 (read off the curve)” value with Human Siglec-9 [3] is about 0.03 µg/mL.

B2: mAbD (antibody, V domains shown)
VH: QIQLVQSGPELKKPGETVKISCKASGYTFTDYSMHWVKQAPGKGLKWMGWIITETGEPTYADDFRGRFAFSLETSANTAYLQINNLKNEDTATYFCARDFDGYWGQGTTLTVSS
VL: DILMTQSPASLSASVGETVTITCRASENIYSYLAWYQQKRGKSPQFLVYNAKTLTEGVPSRFRGSGSGTQFSLKINSLQPEDFGTYYCQHHYGFPWTFGGGTKLEIK
notes: Anti-Siglec-9
On to B2, for which the “fold enhancement of EC50” value with Human Siglec-9 [2] amounted to 10 fold. For the same molecule, in the assay with Human Siglec-9 [3], the “EC50 (read off the curve)” value was about 0.09 µg/mL.

B3: mAbC (antibody, V domains shown)
VH: QIQLVQSGPELKKPGETVKISCKASGYTFTNYEMNWVKEAPGKGLKWMGWINTYTGESTYADDFKGRFAFSLETSASTVYLQINNLKDEDVATYFCVRDDYGRSYGFAYWGQGTLVTVSA
VL: NIVLTQSPASLTVSLGQRANISCRASESVDSYGNSFMHWYQQKPGQPPKLLIYLASKLESGVPARFSGSGSRTDFTLTIDPVETDDAATYYCHQNNEDPPWTFGGGTKLEIK
notes: Anti-Siglec-9
Turning to B3, the “fold enhancement of EC50” value with Human Siglec-9 [2] was found to be 10 fold. Besides, the concentration for a half-maximal effect (EC50 (read off the curve)) with Human Siglec-9 [3] was about 0.03 µg/mL.
